Measured values: patent publication US20130102527A1 (TRUSTEES OF DARTMOUTH COLLEGE, published 2013)
Where two headings read alike, the source gives them in different places. Non-standard residues stand in square brackets, D forms with d. Primed or numbered codes have the meaning given here. No end group written: not given here. *: point of attachment. N3‑Phe = N-terminal azido-phenylalanine, [N-]=[N+]=N[C@@H](Cc1ccccc1)C(=O)*; HMB = 3-hydroxy-2-methylbenzoyl cap, Cc1c(O)cccc1C(=O)*; Phe(4-N3) = [N-]=[N+]=Nc1ccc(C[C@H](N)C(=O)O)cc1; Phe(4-CH2NH2) = NCc1ccc(C[C@H](N)C(=O)O)cc1; Phe(4-NH2) = Nc1ccc(C[C@H](N)C(=O)O)cc1; N3Phe = N-terminal azido-phenylalanine; 4Pal = N[C@@H](Cc1ccncc1)C(=O)O; VS″ = vinyl sulfone (warhead); VS = vinyl sulfone warhead; EK = epoxyketone warhead; ek = epoxyketone warhead

Assays:
[1] = biological target: T1, caspase-like site (β1 subunit) of 26S proteasomes purified from rabbit muscle (rabbit); experiment: cell-based or functional assay
[2] = biological target: T2, chymotrypsin-like site (β5 subunit) of 26S proteasomes purified from rabbit muscle (rabbit, UniProt G1T4Q9 60-263); experiment: cell-based or functional assay
T2 sequence: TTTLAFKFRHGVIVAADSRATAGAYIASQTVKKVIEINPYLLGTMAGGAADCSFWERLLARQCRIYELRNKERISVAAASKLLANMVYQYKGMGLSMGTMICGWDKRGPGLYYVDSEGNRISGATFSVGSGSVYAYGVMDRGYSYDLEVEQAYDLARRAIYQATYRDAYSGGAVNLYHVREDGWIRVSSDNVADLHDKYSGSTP

[3] = biological target: T3, trypsin-like site (β2 subunit) of 26S proteasomes purified from rabbit muscle (rabbit, UniProt G1SWK8 44-271); experiment: cell-based or functional assay
T3 sequence: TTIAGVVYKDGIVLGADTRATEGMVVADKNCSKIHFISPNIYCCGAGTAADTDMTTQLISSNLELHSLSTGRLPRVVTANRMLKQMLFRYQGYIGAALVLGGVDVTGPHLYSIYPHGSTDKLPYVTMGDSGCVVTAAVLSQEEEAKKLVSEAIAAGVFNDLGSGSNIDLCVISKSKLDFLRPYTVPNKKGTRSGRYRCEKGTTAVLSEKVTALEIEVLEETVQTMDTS

[4] = biological target: T4, proteasome β1 subunit (caspase-like site) in human cells and cell extracts (human, UniProt P28072 35-239); experiment: cell-based or functional assay
T4 sequence (P28072 35-239): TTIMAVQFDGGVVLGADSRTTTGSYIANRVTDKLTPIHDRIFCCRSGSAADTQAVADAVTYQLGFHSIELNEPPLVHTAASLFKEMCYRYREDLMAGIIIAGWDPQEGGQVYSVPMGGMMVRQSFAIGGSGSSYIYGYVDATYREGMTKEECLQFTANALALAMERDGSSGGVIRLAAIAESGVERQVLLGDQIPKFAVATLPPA

[5] = biological target: T5, proteasome β5 subunit (chymotrypsin-like site) in human cells and cell extracts (human, UniProt P28074 60-263); experiment: cell-based or functional assay
[6] = biological target: T1, caspase-like site (β1 subunit) of 26S …; experiment: cell-based or functional assay; remark: listed apart in the source
[7] = biological target: T3, trypsin-like site (β2 subunit) of 26S …; experiment: cell-based or functional assay; remark: listed apart in the source
[8] = biological target: T6, trypsin-like site (β2 subunit) of yeast 20S proteasome (S. cerevisiae, UniProt P25043 30-261); experiment: cell-based or functional assay
T6 sequence (looked up): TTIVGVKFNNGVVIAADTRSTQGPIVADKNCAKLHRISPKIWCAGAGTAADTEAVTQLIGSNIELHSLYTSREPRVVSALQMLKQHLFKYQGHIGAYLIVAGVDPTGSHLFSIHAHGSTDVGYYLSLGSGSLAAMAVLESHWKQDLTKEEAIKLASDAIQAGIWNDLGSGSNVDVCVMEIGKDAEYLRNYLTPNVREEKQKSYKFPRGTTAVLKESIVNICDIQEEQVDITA

[9] = biological target: T7, chymotrypsin-like site (β5 subunit) of yeast 20S proteasome (S. cerevisiae, UniProt P30656 76-287); experiment: cell-based or functional assay
T7 sequence (looked up): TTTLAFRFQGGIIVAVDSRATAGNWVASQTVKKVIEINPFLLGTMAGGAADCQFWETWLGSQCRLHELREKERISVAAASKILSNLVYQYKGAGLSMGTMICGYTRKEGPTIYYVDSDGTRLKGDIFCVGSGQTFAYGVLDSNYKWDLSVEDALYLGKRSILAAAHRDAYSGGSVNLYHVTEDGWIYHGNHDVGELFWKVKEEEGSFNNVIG

[10] = biological target: T6, trypsin-like site (β2 subunit) of yeast …; experiment: cell-based or functional assay; remark: listed apart in the source
[11] = biological target: T2, chymotrypsin-like site (β5 subunit) of …; experiment: cell-based or functional assay; remark: listed apart in the source
[12] = biological target: T3, trypsin-like site (β2 subunit) of 26S …; experiment: cell-based or functional assay; remark: listed apart in the source
[13] = biological target: T5, proteasome β5 subunit …; experiment: competition with activity-based probe in living HEK-293 cells, 4 h; Chym-L site
[14] = biological target: T4, proteasome β1 subunit (caspase-like …); experiment: labelling and competition assay in HEK-293T lysate, fluorescence gel

B1: N3-Phe-Leu-Leu-Phe(4-NH2)-EK (45b) (peptide)
peptide: [Phe(4-N3)]LL[Phe(4-NH2)]-{EK}
B1 was tested, and the “IC50 (µM) for sites in 26S proteasomes: Casp-L” value [1] was > 30 µM, the “IC50 (µM) for sites in 26S proteasomes: Chym-L” value [2] was 0.01 µM and the “IC50 (µM) for sites in 26S proteasomes: Tr-L” value [3] was 1.8 µM.

B2: N3Phe-Leu-Leu-Phe(4-CH2NH2)EK TFA salt (4b) (peptide)
peptide: [Phe(4-N3)]LL[Phe(4-CH2NH2)]-{EK}
modifications: also: TFA salt
For B2, the “IC50 (µM) for sites in 26S proteasomes: Casp-L” value [1] was 11 µM and the “IC50 (µM) for sites in 26S proteasomes: Tr-L” value [3] was 0.25 µM.

B3: NC-002 (Ac-Leu-Leu-Arg-ek) (peptide)
peptide: Ac-Leu-Leu-Arg-ek
B3 was tested, and the “IC50 (µM) for sites in 26S proteasomes: Casp-L” value [1] was > 30 µM, the “IC50 (µM) for sites in 26S proteasomes: Chym-L” value [2] was > 30 µM and the “IC50 (µM) for sites in 26S proteasomes: Tr-L” value [3] was 1 µM.

B4: NC-022 (HMB-Val-Ser-Arg-ek) (peptide)
peptide: {HMB}-Val-Ser-Arg-ek
For B4, the “IC50 (µM) for sites: Casp-L; NCI-H929 cells, 6 h, PROTEASOMEGLO” value [4] was > 30 µM, the “IC50 (µM) for sites: Casp-L; RPMI-8226 cells, 6 h, PROTEASOMEGLO” value [4] was > 30 µM and the “IC50 (µM) for sites: Chym-L; NCI-H929 cells, 6 h, PROTEASOMEGLO” value [5] was > 30 µM. For the same binder, the “IC50 (µM) for sites: Chym-L; RPMI-8226 cells, 6 h, PROTEASOMEGLO” value [5] was > 30 µM, the “IC50 (µM) for sites in 26S proteasomes: Casp-L” value [6] was 16 µM and the “IC50 (µM) for sites in 26S proteasomes: Tr-L” value [7] was 0.0038 µM.

B5: N3-Phe-Leu-Leu-Phe(4-NH2)-VS (45a) (peptide)
peptide: [N3Phe]LL[Phe(4-NH2)]-{VS}
With B5 the “IC50 (µM) for sites in 26S proteasomes: Casp-L” value [1] was 23 µM and the “IC50 (µM) for sites in 26S proteasomes: Chym-L” value [2] was 0.04 µM.

B6: HMB-Val-Ser-Phe(4-CH2NH2)-VS (48) (peptide)
peptide: {HMB}-Val-Ser-[Phe(4-CH2NH2)]-{VS}
B6 was tested, and the “IC50 (µM) for sites: Casp-L; NCI-H929 cells, 6 h, PROTEASOMEGLO” value [4] was > 30 µM, the “IC50 (µM) for sites: Casp-L; RPMI-8226 cells, 6 h, PROTEASOMEGLO” value [4] was > 30 µM and the “IC50 (µM) for sites in 26S proteasomes: Casp-L” value [6] was 11 µM. For the same binder, the “IC50 (µM) for sites in 26S proteasomes: Tr-L” value [7] was 0.25 µM.

B7: N3-Phe-Phe(4-CH2NH2)-Leu-Phe(4-CH2NH2)-VS (52) (peptide)
chain: [N3‑Phe][Phe(4-CH2NH2)]L[Phe(4-CH2NH2)]-{VS}
B7 was tested, and the “IC50 (µM) for yeast 20S proteasome: Tr-L” value [8] was 0.00055 µM, the “IC50 (µM) for yeast 20S proteasome: Chym-L” value [9] was 6.1 µM and the “fold potency against yeast trypsin-like sites relative to 4a” value [10] was > 4000 fold.

B8: N3-Phe-Ala(4-pyridine)-Leu-Phe(4-CH2NH2-TFA)-VS (50) (peptide)
chain: [N3Phe][4Pal]L[Phe(4-CH2NH2)]-{VS}
modifications: also: TFA salt
For B8, the “IC50 (µM) for sites: Casp-L; NCI-H929 cells, 6 h, PROTEASOMEGLO” value [4] was > 30 µM, the “IC50 (µM) for sites: Chym-L” value [11] was 1.05 µM and the “IC50 (µM) for sites: Tr-L” value [12] was 0.012 µM. For the same binder, the IC50 [13] was > 50 µM.

B9: BODIPY-triazole-Phe-Leu-Leu-Phe(4-CH2NH2)-VS TFA salt (39) (peptide)
peptide: {BODIPY‑triazole}-FLL[Phe(4-CH2NH2)]-{VS″}
modifications: also: TFA salt
notes: Fluorescent probe made from compound 4a; also called compound 39
B9: no binding [14].
